Molecular target: Hfq (His6-tagged) (UniProt P0A6X3)
Assay: EMSA
Conditions: Single-RNA EMSA: 10 mM Tris-HCl pH 7.4, 0.1 mM EDTA, 10 mM NH4Cl, 10 mM NaCl, 10 mM KCl, 1 mg/ml tRNA, 4% glycerol, RT 5 min; ~40 fmol RNA (legend; Methods say …)

Hfq (His6-tagged), sequence (P0A6X3 whole entry): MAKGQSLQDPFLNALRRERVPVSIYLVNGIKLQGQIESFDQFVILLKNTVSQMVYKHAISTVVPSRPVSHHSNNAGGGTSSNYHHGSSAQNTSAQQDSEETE

DppA mRNA 5' 166 nt (DppASal)
binding signal (fold higher affinity than AgvB and GcvB): 10
